From patent publication US20180009871A1 (INTARCIA THERAPEUTICS, published 2018)
Where no end group is shown, it is not given here. [ ]: non-standard residue; d: D form. Aib = CC(C)(N)C(=O)O

B1: Compound A102 (peptide)
peptide: YSHGTFTSDYSKWLD[Aib]KRAQEFVKWLEDE-OH
modifications: N-terminus assumed
SMILES: CC(C)C[C@H](NC(=O)[C@H](Cc1c[nH]c2ccccc12)NC(=O)[C@H](CCCCN)NC(=O)[C@@H](NC(=O)[C@H](Cc1ccccc1)NC(=O)[C@H](CCC(=O)O)NC(=O)[C@H](CCC(N)=O)NC(=O)[C@H](C)NC(=O)[C@H](CCCNC(=N)N)NC(=O)[C@H](CCCCN)NC(=O)C(C)(C)NC(=O)[C@H](CC(=O)O)NC(=O)[C@H](CC(C)C)NC(=O)[C@H](Cc1c[nH]c2ccccc12)NC(=O)[C@H](CCCCN)NC(=O)[C@H](CO)NC(=O)[C@H](Cc1ccc(O)cc1)NC(=O)[C@H](CC(=O)O)NC(=O)[C@H](CO)NC(=O)[C@@H](NC(=O)[C@H](Cc1ccccc1)NC(=O)[C@@H](NC(=O)CNC(=O)[C@H](Cc1c[nH]cn1)NC(=O)[C@H](CO)NC(=O)[C@@H](N)Cc1ccc(O)cc1)[C@@H](C)O)[C@@H](C)O)C(C)C)C(=O)N[C@@H](CCC(=O)O)C(=O)N[C@@H](CC(=O)O)C(=O)N[C@@H](CCC(=O)O)C(=O)O
B2: Compound A100 (peptide)
peptide: YSHGTFTSDYSKYLD[Aib]KRAQEFV[Aib]WLEDE-OH
modifications: N-terminus assumed
SMILES: CC(C)C[C@H](NC(=O)[C@H](Cc1ccc(O)cc1)NC(=O)[C@H](CCCCN)NC(=O)[C@H](CO)NC(=O)[C@H](Cc1ccc(O)cc1)NC(=O)[C@H](CC(=O)O)NC(=O)[C@H](CO)NC(=O)[C@@H](NC(=O)[C@H](Cc1ccccc1)NC(=O)[C@@H](NC(=O)CNC(=O)[C@H](Cc1c[nH]cn1)NC(=O)[C@H](CO)NC(=O)[C@@H](N)Cc1ccc(O)cc1)[C@@H](C)O)[C@@H](C)O)C(=O)N[C@@H](CC(=O)O)C(=O)NC(C)(C)C(=O)N[C@@H](CCCCN)C(=O)N[C@@H](CCCNC(=N)N)C(=O)N[C@@H](C)C(=O)N[C@@H](CCC(N)=O)C(=O)N[C@@H](CCC(=O)O)C(=O)N[C@@H](Cc1ccccc1)C(=O)N[C@H](C(=O)NC(C)(C)C(=O)N[C@@H](Cc1c[nH]c2ccccc12)C(=O)N[C@@H](CC(C)C)C(=O)N[C@@H](CCC(=O)O)C(=O)N[C@@H](CC(=O)O)C(=O)N[C@@H](CCC(=O)O)C(=O)O)C(C)C
B3: Compound A101 (peptide)
peptide: YGHGTFTSDHSKYLD[Aib]KRAQEFVKWLEDE-OH
modifications: N-terminus assumed
SMILES: CC(C)C[C@H](NC(=O)[C@H](Cc1c[nH]c2ccccc12)NC(=O)[C@H](CCCCN)NC(=O)[C@@H](NC(=O)[C@H](Cc1ccccc1)NC(=O)[C@H](CCC(=O)O)NC(=O)[C@H](CCC(N)=O)NC(=O)[C@H](C)NC(=O)[C@H](CCCNC(=N)N)NC(=O)[C@H](CCCCN)NC(=O)C(C)(C)NC(=O)[C@H](CC(=O)O)NC(=O)[C@H](CC(C)C)NC(=O)[C@H](Cc1ccc(O)cc1)NC(=O)[C@H](CCCCN)NC(=O)[C@H](CO)NC(=O)[C@H](Cc1c[nH]cn1)NC(=O)[C@H](CC(=O)O)NC(=O)[C@H](CO)NC(=O)[C@@H](NC(=O)[C@H](Cc1ccccc1)NC(=O)[C@@H](NC(=O)CNC(=O)[C@H](Cc1c[nH]cn1)NC(=O)CNC(=O)[C@@H](N)Cc1ccc(O)cc1)[C@@H](C)O)[C@@H](C)O)C(C)C)C(=O)N[C@@H](CCC(=O)O)C(=O)N[C@@H](CC(=O)O)C(=O)N[C@@H](CCC(=O)O)C(=O)O
B4: Compound A99 (peptide)
peptide: YSHGTFTSDYSKYLD[Aib]KRAQEFV[Aib]WLEDEPSSGAPPPS-OH
modifications: N-terminus assumed
SMILES: CC(C)C[C@H](NC(=O)[C@H](Cc1ccc(O)cc1)NC(=O)[C@H](CCCCN)NC(=O)[C@H](CO)NC(=O)[C@H](Cc1ccc(O)cc1)NC(=O)[C@H](CC(=O)O)NC(=O)[C@H](CO)NC(=O)[C@@H](NC(=O)[C@H](Cc1ccccc1)NC(=O)[C@@H](NC(=O)CNC(=O)[C@H](Cc1c[nH]cn1)NC(=O)[C@H](CO)NC(=O)[C@@H](N)Cc1ccc(O)cc1)[C@@H](C)O)[C@@H](C)O)C(=O)N[C@@H](CC(=O)O)C(=O)NC(C)(C)C(=O)N[C@@H](CCCCN)C(=O)N[C@@H](CCCNC(=N)N)C(=O)N[C@@H](C)C(=O)N[C@@H](CCC(N)=O)C(=O)N[C@@H](CCC(=O)O)C(=O)N[C@@H](Cc1ccccc1)C(=O)N[C@H](C(=O)NC(C)(C)C(=O)N[C@@H](Cc1c[nH]c2ccccc12)C(=O)N[C@@H](CC(C)C)C(=O)N[C@@H](CCC(=O)O)C(=O)N[C@@H](CC(=O)O)C(=O)N[C@@H](CCC(=O)O)C(=O)N1CCC[C@H]1C(=O)N[C@@H](CO)C(=O)N[C@@H](CO)C(=O)NCC(=O)N[C@@H](C)C(=O)N1CCC[C@H]1C(=O)N1CCC[C@H]1C(=O)N1CCC[C@H]1C(=O)N[C@@H](CO)C(=O)O)C(C)C
B5: Compound A103 (peptide)
peptide: YSHGTFTSDYSKYLD[Aib]ARAQEFV[Aib]WLEDEPSSGAPPPS-OH
modifications: N-terminus assumed
SMILES: CC(C)C[C@H](NC(=O)[C@H](Cc1ccc(O)cc1)NC(=O)[C@H](CCCCN)NC(=O)[C@H](CO)NC(=O)[C@H](Cc1ccc(O)cc1)NC(=O)[C@H](CC(=O)O)NC(=O)[C@H](CO)NC(=O)[C@@H](NC(=O)[C@H](Cc1ccccc1)NC(=O)[C@@H](NC(=O)CNC(=O)[C@H](Cc1c[nH]cn1)NC(=O)[C@H](CO)NC(=O)[C@@H](N)Cc1ccc(O)cc1)[C@@H](C)O)[C@@H](C)O)C(=O)N[C@@H](CC(=O)O)C(=O)NC(C)(C)C(=O)N[C@@H](C)C(=O)N[C@@H](CCCNC(=N)N)C(=O)N[C@@H](C)C(=O)N[C@@H](CCC(N)=O)C(=O)N[C@@H](CCC(=O)O)C(=O)N[C@@H](Cc1ccccc1)C(=O)N[C@H](C(=O)NC(C)(C)C(=O)N[C@@H](Cc1c[nH]c2ccccc12)C(=O)N[C@@H](CC(C)C)C(=O)N[C@@H](CCC(=O)O)C(=O)N[C@@H](CC(=O)O)C(=O)N[C@@H](CCC(=O)O)C(=O)N1CCC[C@H]1C(=O)N[C@@H](CO)C(=O)N[C@@H](CO)C(=O)NCC(=O)N[C@@H](C)C(=O)N1CCC[C@H]1C(=O)N1CCC[C@H]1C(=O)N1CCC[C@H]1C(=O)N[C@@H](CO)C(=O)O)C(C)C
B6: Compound A6 (peptide)
peptide: WSQGTFTSDYSKYLD[Aib]KRAQEFV[Aib]WLEDEPSSGAPPPS-OH
modifications: N-terminus assumed
SMILES: CC(C)C[C@H](NC(=O)[C@H](Cc1ccc(O)cc1)NC(=O)[C@H](CCCCN)NC(=O)[C@H](CO)NC(=O)[C@H](Cc1ccc(O)cc1)NC(=O)[C@H](CC(=O)O)NC(=O)[C@H](CO)NC(=O)[C@@H](NC(=O)[C@H](Cc1ccccc1)NC(=O)[C@@H](NC(=O)CNC(=O)[C@H](CCC(N)=O)NC(=O)[C@H](CO)NC(=O)[C@@H](N)Cc1c[nH]c2ccccc12)[C@@H](C)O)[C@@H](C)O)C(=O)N[C@@H](CC(=O)O)C(=O)NC(C)(C)C(=O)N[C@@H](CCCCN)C(=O)N[C@@H](CCCNC(=N)N)C(=O)N[C@@H](C)C(=O)N[C@@H](CCC(N)=O)C(=O)N[C@@H](CCC(=O)O)C(=O)N[C@@H](Cc1ccccc1)C(=O)N[C@H](C(=O)NC(C)(C)C(=O)N[C@@H](Cc1c[nH]c2ccccc12)C(=O)N[C@@H](CC(C)C)C(=O)N[C@@H](CCC(=O)O)C(=O)N[C@@H](CC(=O)O)C(=O)N[C@@H](CCC(=O)O)C(=O)N1CCC[C@H]1C(=O)N[C@@H](CO)C(=O)N[C@@H](CO)C(=O)NCC(=O)N[C@@H](C)C(=O)N1CCC[C@H]1C(=O)N1CCC[C@H]1C(=O)N1CCC[C@H]1C(=O)N[C@@H](CO)C(=O)O)C(C)C

Each binder was assayed against T1, human glucagon receptor (GCGR) (human, UniProt P47871 26-477) (assay: cell-based or functional assay).

Binder | hGCGR pEC50 (cAMP) mean (n = 3): 11 point curve starting at 1 nM [pEC50]
B1 | 12.4
B2 | 12.6
YSHGTFTSDYSKYLDAARAQEFVKWLEDEPSSGAPPPS-OH [Compound A97] | 12.3
B3 | 11.3
B4 | 12.5
YSHGTFTSDYTRLLESKRAQEFVKWLEDEPSSGAPPPS-OH [Compound A98] | 12.2
B5 | 11.9

Each binder was assayed against T2, human GLP-1 receptor (GLP-1R) (human, UniProt P43220 24-463) (assay: cell-based or functional assay).
T2 sequence (P43220 24-463): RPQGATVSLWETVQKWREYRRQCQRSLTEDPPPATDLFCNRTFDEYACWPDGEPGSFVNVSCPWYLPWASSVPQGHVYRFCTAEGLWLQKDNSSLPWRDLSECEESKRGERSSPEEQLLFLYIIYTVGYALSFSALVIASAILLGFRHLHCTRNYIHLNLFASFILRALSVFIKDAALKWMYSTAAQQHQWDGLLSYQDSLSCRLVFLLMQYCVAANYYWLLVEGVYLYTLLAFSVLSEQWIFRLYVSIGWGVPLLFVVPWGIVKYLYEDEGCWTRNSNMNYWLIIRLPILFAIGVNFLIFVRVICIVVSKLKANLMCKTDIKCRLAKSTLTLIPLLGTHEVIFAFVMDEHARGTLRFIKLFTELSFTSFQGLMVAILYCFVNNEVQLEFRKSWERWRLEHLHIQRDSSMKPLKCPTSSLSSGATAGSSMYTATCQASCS

Binder | hGLP1 pEC50 (cAMP) mean (n = 3): 11 point curve starting at 1 nM [pEC50]
B1 | < 9
B2 | < 9
YSHGTFTSDYSKYLDAARAQEFVKWLEDEPSSGAPPPS-OH [Compound A97] | < 9
B3 | < 9
B4 | < 9
YSHGTFTSDYTRLLESKRAQEFVKWLEDEPSSGAPPPS-OH [Compound A98] | < 9
B5 | < 9

Each binder was assayed against human GLP-1 receptor (GLP-1R) (human, UniProt P43220 24-463) (assay: cell-based or functional assay).
Target sequence in this assay (P43220 24-463): as the sequence (P43220 24-463) above

Binder | hGLP1 pEC50 (cAMP) [pEC50]
YSQGTFTSDYSKYLD[Aib]KAAQEFV[Aib]WLEDEPSSGKPPPS [Compound A96] | < 9
YSQGTFTSDYSKYLD[Aib]KRAQEFV[Aib]WLEDEPSSGAPPPS [Compound A94] | < 9
YSQGTFTSDYSKYLD[Aib]KAAQEFV[Aib]WLEDEPSSGAPPPS [Compound A95] | < 9

What follows are binders tested against human glucagon receptor (GCGR) (human, UniProt P47871 26-477) (assay: cell-based or functional assay).

Binder | hGCGR pEC50 (cAMP) [pEC50]
YSQGTFTSDYSKYLD[Aib]KAAQEFV[Aib]WLEDEPSSGKPPPS [Compound A96] | 13
YSQGTFTSDYSKYLD[Aib]KRAQEFV[Aib]WLEDEPSSGAPPPS [Compound A94] | 14.1
YSQGTFTSDYSKYLD[Aib]KAAQEFV[Aib]WLEDEPSSGAPPPS [Compound A95] | 13.3

Biological target: T1, human glucagon receptor (GCGR)
Assay: cell-based or functional assay
Remark: another data set of the same source

Binder | hGCGR pEC50 (cAMP) mean (n = 9): 11 point curve starting at 1 uM [pEC50]
B6 | 11.7

Biological target: T2, human GLP-1 receptor (GLP-1R)
Assay: cell-based or functional assay
Remark: another data set of the same source

Binder | hGLP1 pEC50 (cAMP) mean (n = 9): 11 point curve starting at 500 uM [pEC50]
B6 | 5.3
